PMC4039189

Target: C-terminal TAP-tagged PB1 (influenza A virus, strain not stated)
Assay: pull-down

B1: DDX21, plasmid-expressed (pcDNA3 plasmid expressing DDX21) (natural protein)
chain: MPGKLRSDAGLESDTAMKKGETLRKQTEEKEKKEKPKSDKTEEIAEEEETVFPKAKQVKKKAEPSEVDMNSPKSKKAKKKEEPSQNDISPKTKSLRKKKEPIEKKVVSSKTKKVTKNEEPSEEEIDAPKPKKMKKEKEMNGETREKSPKLKNGFPHPEPDCNPSEAASEESNSEIEQEIPVEQKEGAFSNFPISEETIKLLKGRGVTFLFPIQAKTFHHVYSGKDLIAQARTGTGKTFSFAIPLIEKLHGELQDRKRGRAPQVLVLAPTRELANQVSKDFSDITKKLSVACFYGGTPYGGQFERMRNGIDILVGTPGRIKDHIQNGKLDLTKLKHVVLDEVDQMLDMGFADQVEEILSVAYKKDSEDNPQTLLFSATCPHWVFNVAKKYMKSTYEQVDLIGKKTQKTAITVEHLAIKCHWTQRAAVIGDVIRVYSGHQGRTIIFCETKKEAQELSQNSAIKQDAQSLHGDIPQKQREITLKGFRNGSFGVLVATNVAARGLDIPEVDLVIQSSPPKDVESYIHRSGRTGRAGRTGVCICFYQHKEEYQLVQVEQKAGIKFKRIGVPSATEIIKASSKDAIRLLDSVPPTAISHFKQSAEKLIEEKGAVEALAAALAHISGATSVDQRSLINSNVGFVTMILQCSIEMPNISYAWKELKEQLGEEIDSKVKGMVFLKGKLGVCFDVPTASVTEIQEKWHDSRRWQLSVATEQPELEGPREGYGGFRGQREGSRGFRGQRDGNRRFRGQREGSRGPRGQRSGGGNKSNRSQNKGQKRSFSKAFGQ
- percent reduction of TAP-selected PA by DDX21 (1 μg plasmid): 75%
- percent reduction of TAP-selected PB2 by DDX21 (1 μg plasmid): 65%
